Target: antigen of FIG. 44 (not named)
Assay: SPR (Biacore), Fab, FIG. 44

B1: Ab46 Fab (Fab, V domains shown)
VH: EVQLLESGGGLVQPGGSLRLSCAASGFTFADYAMTWVRQAPGKGLEWVSAISGSGAATYFADSVKGRFTISRDNSKNTLYLQMNSLRAEDTAVYYCARVSSGHWDYDYWGQGTLVTVSS
VL: DIQLTQSPSSLSASVGDRVTITCRASQSISSYLNWYQQKPGKAPKLLIYAASGLESGVPSRFSGSGSGTDFTLTISSLQPEDFATYYCQQTYGVPLTFGGGTKVEIK
  fold longer bound than the reference antibody: > 50 fold
  t1/2: > 2.17 h

— US20240294623A1
